Test results published in US20260078186A1 (HEFEI TG IMMUNOPHARMA, published 2026).

What was measured:
[1] = target: T1, Human PD-L1-Fc fusion protein (purchased from Acro) (human, UniProt Q9NZQ7 19-238); test: ELISA, PD-L1-Fc coated at 1 µg/ml, anti-mouse IgG-HRP
T1 construct: extracellular domain; also called PD-L1 fusion protein; PD-L1 extracellular region protein; not shown: Fc part of the bought fusion protein

[2] = target: T2, PD-L1 on the surface of tumor cells (human lung adenocarcinoma A549 cells, human melanoma A375 cells) (human, UniProt Q9NZQ7 19-290); test: flow cytometry on A549 cells
T2 construct: whole, on cells; No PD-L1-negative control cell is described; also called PD-L1 protein on the surface of tumor cells
T2 sequence (Q9NZQ7 19-290): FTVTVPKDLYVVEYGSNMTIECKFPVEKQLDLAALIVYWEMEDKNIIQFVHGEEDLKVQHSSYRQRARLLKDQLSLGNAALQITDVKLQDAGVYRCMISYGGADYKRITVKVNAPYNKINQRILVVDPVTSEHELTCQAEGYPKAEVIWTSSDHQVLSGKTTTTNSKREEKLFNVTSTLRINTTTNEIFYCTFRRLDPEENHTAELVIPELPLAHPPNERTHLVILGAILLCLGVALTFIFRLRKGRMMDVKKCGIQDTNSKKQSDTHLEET
Protocol: 1 mL of PBS was added to the EP tube. […] The supernatant was discarded, and the system was washed again with PBS. […] The system was washed twice with PBS, and the supernatant was discarded after centrifugation. The cells were resuspended with 200 μL/tube PBS and detected by flow cytometry.

[3] = target: T2, PD-L1 on the surface of tumor cells …; test: flow cytometry on A375 and A549 cells
Protocol: Human melanoma A375 cells and human lung adenocarcinoma A549 cells were diluted to 1×10⁶ cells/mL with PBS and added to 1.5 mL EP tubes at 100 μL/tube. 10 μL/tube of rat serum was added and blocked at 4° C. for 30 minutes. […] 1 mL of PBS was added to the EP tube. The system was centrifuged at 4° C. and 3500 rpm for 5 min. The supernatant was discarded, and the system was washed again with PBS. After centrifugation, the supernatant was discarded, and the cells were resuspended with 100 μL/tube PBS. 1 μL/tube of Alexa-647-labeled rat anti-human secondary antibody (Biolegend) was added and incubated at 4° C. in the dark for 30 min. The system was washed twice with PBS, and the supernatant was discarded after centrifugation. The cells were resuspended with 200 μL/tube PBS and detected by flow cytometry.

[4] = target: T1, Human PD-L1-Fc fusion protein …; test: ELISA, PD-L1-Fc coated at 1 µg/ml; h19B8 binds slightly more strongly than CD3×h19B8
[5] = target: T1, Human PD-L1-Fc fusion protein …; test: ELISA

T1 sequence (Q9NZQ7 19-238): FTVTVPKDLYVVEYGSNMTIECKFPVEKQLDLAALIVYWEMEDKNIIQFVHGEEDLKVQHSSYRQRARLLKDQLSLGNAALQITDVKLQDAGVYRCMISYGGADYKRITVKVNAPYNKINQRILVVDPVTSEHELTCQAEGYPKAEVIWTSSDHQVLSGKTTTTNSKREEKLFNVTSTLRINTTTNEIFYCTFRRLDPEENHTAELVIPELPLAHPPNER

B1: murine 19B8 antibody (19B8-mIgG1 heavy chain / 19B8-mK light chain) (antibody)
heavy: EVQLQQSGPDLVKPGASVKISCKASGYSFTGYYMHWVKQSHVKSLEWIGRINPYNGATTYSQNFKDKASLTVDKSSSTAYMELHSLTSEDSAVYYCVPTGMGYFLMDYWGQGTSVTVSSAKTTPPSVYPLAPGSAAQTNSMVTLGCLVKGYFPEPVTVTWNSGSLSSGVHTFPAVLQSDLYTLSSSVTVPSSPRPSETVTCNVAHPASSTKVDKKIVPRDCGCKPCICTVPEVSSVFIFPPKPKDVLTITLTPKVTCVVVDISKDDPEVQFSWFVDDVEVHTAQTQPREEQFNSTFRSVSELPIMHQDWLNGKEFKCRVNSAAFPAPIEKTISKTKGRPKAPQVYTIPPPKEQMAKDKVSLTCMITDFFPEDITVEWQWNGQPAENYKNTQPIMNTNGSYFVYSKLNVQKSNWEAGNTFTCSVLHEGLHNHHTEKSLSHSPGK
light: DIVMTQSHKFMSASVGDRVSITCKASQDVGSAVVWYRQKPGQSPKLLIYWASTRHTGVPDRFTGSGSGTDFTLTISNVQSEDLADYFCQQFTSYPTFGSGTRLEIKRADAAPTVSIFPPSSEQLTSGGASVVCFLNNFYPKDINVKWKIDGSERQNGVLNSWTDQDSKDSTYSMSSTLTLTKDEYERHNSYTCEATHKTSTSPIVKSFNRNEC
notes: Recombinant murine IgG1/kappa made in ExpiCHO-S cells; also called murine PD-L1 antibody 19B8; murine PD-L1 antibody (19B8)
B1: binds [1]; binds [2].

B2: humanized PD-L1 antibody h19B8-hIgG1LALA (h19B8-hIgG1LALA heavy chain / h19B8-hK light chain) (antibody, V domains shown)
VH: QVQLVQSGAEVKKPGASVKVSCKASGYSFTGYYMHWVRQAPGQGLEWIGRINPYNGATTYSQNFKDRATMTVDTSISTAYMELSRLRSDDTAVYYCVPTGMGYFLMDYWGQGTLVTVSS
VL: DIQLTQSPSFLSASVGDRVTITCKASQDVGSAVVWYQQKPGKAPKLLIYWASTRHTGVPSRFSGSGSGTEFTLTISSLQPEDFATYFCQQFTSYPTFGQGTKLEIKR
notes: also called humanized 19B8 antibody; h19B8 monoclonal antibody
B2: binds [3]; binds [4].

B3: chimeric antibody 19B8-hIgG1LALA (19B8-hIgG1LALA heavy chain / 19B8-hK light chain) (antibody)
heavy: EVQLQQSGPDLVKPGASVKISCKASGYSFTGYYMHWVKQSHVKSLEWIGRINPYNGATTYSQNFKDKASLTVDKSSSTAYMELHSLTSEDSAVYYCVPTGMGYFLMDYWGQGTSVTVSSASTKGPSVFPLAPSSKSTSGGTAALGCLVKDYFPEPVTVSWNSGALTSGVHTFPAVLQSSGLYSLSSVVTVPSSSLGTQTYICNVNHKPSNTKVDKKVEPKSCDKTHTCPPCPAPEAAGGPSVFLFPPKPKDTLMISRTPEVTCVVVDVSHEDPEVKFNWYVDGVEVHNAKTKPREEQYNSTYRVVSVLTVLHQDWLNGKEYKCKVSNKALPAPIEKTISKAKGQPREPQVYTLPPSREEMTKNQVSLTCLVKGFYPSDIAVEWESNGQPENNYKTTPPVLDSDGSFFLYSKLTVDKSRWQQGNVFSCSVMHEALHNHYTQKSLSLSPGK
light: DIVMTQSHKFMSASVGDRVSITCKASQDVGSAVVWYRQKPGQSPKLLIYWASTRHTGVPDRFTGSGSGTDFTLTISNVQSEDLADYFCQQFTSYPTFGSGTRLEIKRTVAAPSVFIFPPSDEQLKSGTASVVCLLNNFYPREAKVQWKVDNALQSGNSQESVTEQDSKDSTYSLSSTLTLSKADYEKHKVYACEVTHQGLSSPVTKSFNRGEC
notes: Murine 19B8 variable regions on human IgG1 LALA / human kappa constant regions; also called 19B8 chimeric antibody; human-murine chimeric PD-L1 antibody
B3: binds [5]; binds [3].
